Where a chain is given by its changes, count along the chain named.
T1: hPAR3 (Biotin) (human, biotin on the C-terminal lysine (GGGGSK-biotin, SKB))
T1 construct: also called hPAR3 peptide
T1 peptide: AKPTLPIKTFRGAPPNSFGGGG

T2: hPAR1 (Biotin) (human, biotin on the C-terminal lysine (GGGGSK-biotin, SKB))
T2 construct: also called hPAR1 peptide
T2 peptide: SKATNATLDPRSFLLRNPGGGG

T3: human PAR4 on isolated human platelets (human, UniProt Q96RI0 18-385)
T3 construct: Native receptor of donor platelets (genotypes AA, AT, TT at residue 120); also called hPAR4
T3 sequence: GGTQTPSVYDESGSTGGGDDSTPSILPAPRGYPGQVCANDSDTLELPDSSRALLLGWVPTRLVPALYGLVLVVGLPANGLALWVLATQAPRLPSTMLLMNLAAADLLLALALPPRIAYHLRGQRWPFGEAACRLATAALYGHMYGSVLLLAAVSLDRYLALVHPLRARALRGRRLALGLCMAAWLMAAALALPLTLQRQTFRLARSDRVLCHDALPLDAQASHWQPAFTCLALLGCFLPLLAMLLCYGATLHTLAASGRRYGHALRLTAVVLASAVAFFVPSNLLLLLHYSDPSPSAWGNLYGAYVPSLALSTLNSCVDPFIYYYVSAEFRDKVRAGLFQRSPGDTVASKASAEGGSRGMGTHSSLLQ

T4: hPAR2 (Biotin) (human, biotin on the C-terminal lysine (GGGGSK-biotin, SKB))
T4 construct: also called hPAR2 peptide
T4 peptide: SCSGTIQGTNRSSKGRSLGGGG

T5: hPAR4 (Biotin) (human, biotin on the C-terminal lysine (GGGGSK-biotin, SKB))
T5 construct: also called hPAR4 biotinylated peptide; Human PAR4 peptide (biotinylated)
T5 peptide: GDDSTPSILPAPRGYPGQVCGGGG

B1: 5F.RE6 (antibody, IgG2a, V domains shown)
VH: QVQLAESGGGVVQPGRSLRVSCAASGFTFSSYGMHWVRQAPGKGLEWVAVIWYDGTKKYYADSLKGRFTISRDNSKYTLYLQMNSLRADDTALYFCARKGARGITGLDYWGQGTLVTVSS
VL: DIQMTQSPSSLSASAGDRITITCRASQSISNYLNWYQQKPGKAPKLLIYAASSLQSGVPSRFSGSGSGTDFTLTISSLQPEDFASYYCRQNYNTPLTFGGGTKVEIK
notes: Human variable regions on mouse constant regions; isotype IgG2a/κ; Tested as parent hybridoma supernatant (MoB5F E6); also called 5F RE6.D3.E7; MoB5F E6
B2: 5I.RG1 (antibody, IgG3, V domains shown)
VH: QVQLQQWGAGLLKPSETLSLACAISSGSFSTYFWRWIRQPPGKGLEWIGEIIHTGSTTYNPSLKSRVTISVDTSKNQLSLKLSSVTAADTAVYYCAFEYSSSGGYYYGMDVWGQGTTVTVSS
VL: B1 VL with A15V, I19V, N31S, K39I, K45N, Q55R, S85T, R89Q, N91T, N93S
notes: Human variable regions on mouse constant regions; isotype IgG3/κ; also called 5I.RG1.D6.C1b; 51.RG1
B3: 5H.RF2 (antibody, IgG2a, V domains shown)
VH: QVQLQQWGAGLLKPSETLALTCAVYGGSLSDYYWSWIRQPPGKGLEWIGEINHSGTTNYNPSLKSRVTISVDTSKKQFSLKLSSVTAADTAVYYCAIEYSNSRGYYYGMDVWGQGTTVTVSS
VL: B1 VL with S28T
notes: Human variable regions on mouse constant regions; isotype IgG2a/κ; also called 5H.RF2.A5b.D3.C2; MoB5H F2
B4: 5H.RH4 (antibody, IgG2b, V domains shown)
VH: QVQLQQWGAGLLKPSETLSLTCAVYGGSFSNYYWSWIHQPPGKGLEWIGEINHSGSTNYNPSLKSRVTISVDTSKKQFSLNLSSVTAADTAVYYCKVEHSSSSGHYYYGMDVWGQGTTVTVSS
VL: DIQMTQSPSSLSASVGDRVTITCRASQTISYYLNWYQQKPGKAPKLLIYAASRLQSGVPSRFSGSGSGTDFTLTISSLQPEDFTTYYCQQSYSTPLTFGGGTKVGIK
notes: Human variable regions on mouse constant regions; isotype IgG2b/κ; Tested as parent hybridoma supernatant (MoB5H H4); also called 5H RH4.C8b.A3.A6; MoB5H H4
B5: 5G.RG1 (antibody, IgG1, V domains shown)
VH: QVQLVESGGGVVQPGRSLRLSCVASGFTLSSYGMHWVRQAPGKGLEWVAVIWYDGSSKYYTDSVKGRFDISRDNSKNTLYLQMNILRAEDTAVYYCARETILIGGVPFDYWGQGTLVTVSS
VL: EIVLTQSPGTLSLSPGERATLSCGASQSIRSNYLAWYQQKPGQAPRLLIYGASSRATGTPDRFSGSGSGTDFTLTITRLEPEDFALYYCQQYGRSYTFGQGTKLEIK
notes: Human variable regions on mouse constant regions; isotype IgG1/κ; Tested as parent hybridoma supernatant (MoB5G G1); also called 5G RG1.D3.C2b; MoB5G G1
B6: 5H.RD2 (antibody, IgG1, V domains shown)
VH: EVQLVESGGDLVKPGGSLRLSCSASGFTFFNTWMNWVRQAPGKGLEWVGRVKSKNDGGTKDYAAPVTGRFTISRDDSKDTLYLQMNSLKTEDTAVYYCTTDPHYDFWSAYWGQGTLVTVSS
VL: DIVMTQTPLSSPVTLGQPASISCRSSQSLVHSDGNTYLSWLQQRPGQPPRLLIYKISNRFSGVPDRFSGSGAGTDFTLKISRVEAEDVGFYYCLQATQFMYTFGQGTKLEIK
notes: Human variable regions on mouse constant regions; isotype IgG1/κ; also called 5H.RD2.A7b; MoB5H-RD2.A7b
B7: 5A.RC3 (antibody, IgG2a, V domains shown)
VH: QVQLVESGGGVVQPGRSLRLSCAASGFTLSNYGMHWVRQAPGKGLEWVSVIWYDGSNKHYADSVKGRFTISRDNSKNTLYLQMNSLRAEDTAVYYCARESIVEVLPPFDYWGQGTLVTVSS
VL: KIVLTQSPGTLSLSPGERVTLSCRASQRVRNNYLAWFQQKPGQAPRLFIYGASSRATGIPDRFSGSGSGTDFIFTISRLEPEDFAVYYCQQYGNSYTFGQGTKLEIK
notes: Human variable regions on mouse constant regions (HumAb mice); isotype IgG2a/κ; also called 5A.RC3.F10b.H4b; MoB5A-RC3.F10b.H4b
B8: 5H.RA3 (antibody, IgG2a, V domains shown)
VH: B1 VH with A5V, H35L
VL: not shown
notes: Human variable regions on mouse constant regions; isotype IgG2a/κ; also called 5H.RA3.D3b.A2b; MoB5H A3
B9: 5D.RH4 (antibody, IgG2a, V domains shown)
VH: QIQLVESGGGVVQPGRSLRLSCAASGFTFSSDGMHWVRQAPGKGLEWVAVIWFDGRNKYYLDSVKGRFTISRDNSKNTLYLQMNSLRAEDTAVYYCARESSISTRPPFDYWGQGTLVTVSS
VL: not shown
notes: Human variable regions on mouse constant regions; isotype IgG2a/κ; also called 5D.RH4.G7.E6.C7b.G7
B10: 5F.RF3 (antibody, IgG2b, V domains shown)
VH: QVQLVQSGAEVKKPGASVKVSCKTSAYTFTNYGISWVRQAPGQGLEWMGWISPYNGNTNYAQKLQGRVTMTTDTSTRTAYMELRSLRSDDTAVYYCAREYNRSSRGRYYYYGMDVWGQGTTVTVSS
VL: EIVLTQSPGTLSLSPGERATLSCRASQSVSSNYLAWYQKKPGQAPRLLISGASSRATGIPDRFSGSGSGTDFTLTISRLEPEDFAVYYCQQYGSSPWTFGQGTKVEIK
notes: Human variable regions on mouse constant regions; isotype IgG2b/κ; also called 5F.RF3.A7b.C9; MoB5F-RF3.A7b.C9
B11: 5G.RA1 (antibody, IgG2a, V domains shown)
VH: B5 VH with V23A, L29F, S57N, T61A, D69T, I85S, I101A, I103V, G104R
VL: not shown
notes: Human variable regions on mouse constant regions; isotype IgG2a/κ; also called 5G.RA1.E10.G3; MoB5G A1

Target: T1, hPAR3 (Biotin)
Experiment: ELISA, hybridoma supernatant
B1 was tested, and the “Binding to PAR3 ratio” value was 0.8 ratio.
With B2 the “Binding to PAR3 ratio” value was 1 ratio.
B3 was tested, and the “Binding to PAR3 ratio” value was 0.9 ratio.
In the case of B4, the “Binding to PAR3 ratio” value is reported as 0.9 ratio.
For B5, the “Binding to PAR3 ratio” value was 0.8 ratio.
With B6 the “Binding to PAR3 ratio” value was 0.9 ratio.

Target: T2, hPAR1 (Biotin)
Experiment: ELISA, hybridoma supernatant
In the case of B1, the “Binding to PAR1 ratio” value is reported as 1.1 ratio.
In the case of B2, the “Binding to PAR1 ratio” value is reported as 1 ratio.
B3 was tested, and the “Binding to PAR1 ratio” value was 1 ratio.
In the case of B4, the “Binding to PAR1 ratio” value is reported as 1 ratio.
For B5, the “Binding to PAR1 ratio” value was 1.1 ratio.
B6 was tested, and the “Binding to PAR1 ratio” value was 1 ratio.

These binders were tested against T3, human PAR4 on isolated human platelets (assay: flow cytometry on isolated human platelets).
With B7 the “Binding to human platelets, FACS GMFI at 10 ug/ml (over isotype control)” value (“Binding … (over isotype control)” for short) was 39 GMFI.
With B8 the “Binding … (over isotype control)” value was 100 GMFI.
B9 was tested, and the “Binding … (over isotype control)” value was 33 GMFI.
For B10, the “Binding … (over isotype control)” value was 53 GMFI.
B11 was tested, and the “Binding … (over isotype control)” value was 25 GMFI.

Target: T1, hPAR3 (Biotin)
Experiment: ELISA, biotinylated peptides on streptavidin plate
Experimental: (§1) Biotinylated peptides (hPAR1-4) were diluted in Wash buffer and allowed to bind to the blocked Streptavidin coated wells at 10 ug/ml (100 ul per well) for 1 hour at room temperature with gentle mixing. Wells were washed 3 times as above and purified anti-hPAR4 mAbs prepared at 10 ug/ml in Wash buffer were allowed to bind (100 ul/well) for 1 hour at room temperature with gentle mixing. The plate was washed 3 times as above and anti-mouse Fc conjugated to Alkaline phosphatase (AP) at 0.3 ug/ml (100 ul) was added to the wells for 1 hour as above. Wells were washed 3 times as above and developed with Alkaline Phosphatase substrate as described for the screening supernatant ELISA.
(§2) To further characterise the purified anti-hPAR4 mAb's the specificity of the mAbs to hPAR1, hPAR2, hPAR3 and hPAR4 biotinylated peptides was performed.
B7: no binding (tested: 10 ug/ml).
B2: no binding (tested: 10 ug/ml).
B3: no binding (tested: 10 ug/ml).

Target: T4, hPAR2 (Biotin)
Experiment: ELISA, biotinylated peptides on streptavidin plate
Experimental: as §1, §2
B7: no binding (tested: 10 ug/ml).
B2: no binding (tested: 10 ug/ml).
B3: no binding (tested: 10 ug/ml).

Target: T2, hPAR1 (Biotin)
Experiment: ELISA, biotinylated peptides on streptavidin plate
Experimental: as §1, §2
B7: no binding (tested: 10 ug/ml).
B2: no binding (tested: 10 ug/ml).
B3: no binding (tested: 10 ug/ml).

Target: T5, hPAR4 (Biotin)
Experiment: SPR (Biacore T200), biotinylated hPAR4 peptide on SA chip, mAb as analyte
With B7 the Kd was 0.32 nM, the koff was 0.000417 s⁻¹ and the kon was 1.32e+06 M⁻¹ s⁻¹.
For B2, the Kd was 0.36 nM, the koff was 0.000667 s⁻¹ and the kon was 1.85e+06 M⁻¹ s⁻¹.
B3 was tested, and the Kd was 0.61 nM, the koff was 0.00111 s⁻¹ and the kon was 1.84e+06 M⁻¹ s⁻¹.

Target: T5, hPAR4 (Biotin)
Experiment: SPR (Bio-Rad ProteOn XPR36), biotinylated peptide captured, antibody as analyte
B7 gave a Kd of about 0.4 nM.

From US20210179707A1 (published 2021)
